The values below are quoted from earlier work in patent publication US7951914B2, “Genetically modified cyclic-nucleotide controlled ion channels” (Forschungszentrum Julich GmbH, priority 2001, dated 2011).

The target of the data set is T1, CNG channels comprising the α3 subunits from the epithelium of the nose (Bos taurus, UniProt Q03041).
T1 sequence (Q03041 1-663): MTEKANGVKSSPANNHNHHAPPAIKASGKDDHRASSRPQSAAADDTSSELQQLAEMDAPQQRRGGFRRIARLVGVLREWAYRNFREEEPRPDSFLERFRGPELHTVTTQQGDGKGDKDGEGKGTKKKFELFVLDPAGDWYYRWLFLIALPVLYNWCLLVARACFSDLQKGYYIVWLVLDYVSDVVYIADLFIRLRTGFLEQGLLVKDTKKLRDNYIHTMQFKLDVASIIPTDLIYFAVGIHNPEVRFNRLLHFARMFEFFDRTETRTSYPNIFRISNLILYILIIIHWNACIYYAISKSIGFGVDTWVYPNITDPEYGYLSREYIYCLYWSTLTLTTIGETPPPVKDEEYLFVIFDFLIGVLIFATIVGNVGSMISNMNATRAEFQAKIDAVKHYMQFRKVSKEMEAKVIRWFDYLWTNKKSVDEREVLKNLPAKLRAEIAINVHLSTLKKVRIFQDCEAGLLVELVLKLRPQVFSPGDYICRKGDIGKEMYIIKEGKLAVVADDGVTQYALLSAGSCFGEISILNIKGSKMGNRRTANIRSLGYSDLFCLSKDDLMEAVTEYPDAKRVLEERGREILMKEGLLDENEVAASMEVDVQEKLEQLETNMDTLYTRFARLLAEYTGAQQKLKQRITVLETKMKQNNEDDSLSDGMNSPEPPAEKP
The note with it: Dhallan 1990; Ludwig 1990; cited from earlier work.

B1: CNG channels comprising the α3 subunits: prior-art CNG channels of α3 subunits from the epithelium of the nose (protein, UniProt Q16280 1-664, looked up)
Cyclic nucleotide-gated …: MTEKTNGVKSSPANNHNHHAPPAIKANGKDDHRTSSRPHSAADDDTSSELQRLADVDAPQQGRSGFRRIVRLVGIIREWANKNFREEEPRPDSFLERFRGPELQTVTTQEGDGKGDKDGEDKGTKKKFELFVLDPAGDWYYCWLFVIAMPVLYNWCLLVARACFSDLQKGYYLVWLVLDYVSDVVYIADLFIRLRTGFLEQGLLVKDTKKLRDNYIHTLQFKLDVASIIPTDLIYFAVDIHSPEVRFNRLLHFARMFEFFDRTETRTNYPNIFRISNLVLYILVIIHWNACIYYAISKSIGFGVDTWVYPNITDPEYGYLAREYIYCLYWSTLTLTTIGETPPPVKDEEYLFVIFDFLIGVLIFATIVGNVGSMISNMNATRAEFQAKIDAVKHYMQFRKVSKGMEAKVIRWFDYLWTNKKTVDEREILKNLPAKLRAEIAINVHLSTLKKVRIFHDCEAGLLVELVLKLRPQVFSPGDYICRKGDIGKEMYIIKEGKLAVVADDGVTQYALLSAGSCFGEISILNIKGSKMGNRRTANIRSLGYSDLFCLSKDDLMEAVTEYPDAKKVLEERGREILMKEGLLDENEVATSMEVDVQEKLGQLETNMETLYTRFGRLLAEYTGAQQKLKQRITVLETKMKQNNEDDYLSDGMNSPELAAADEP
As for B1, the “cGMP concentration that activates the channels” value is 2 µM.
